Results from patent US20060099689.

Columns and labels:
[1] = test system: TRX-EK-hIFNa [thioredoxin: P0AA25]
[2] = target: T1, TRX-EK-mIL15 (UniProt P48346)
T1 sequence: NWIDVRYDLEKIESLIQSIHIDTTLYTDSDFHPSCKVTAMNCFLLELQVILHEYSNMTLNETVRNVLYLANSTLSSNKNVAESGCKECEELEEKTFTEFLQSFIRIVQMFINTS

[3] = target: H-GST-T-mLIF (UniProt P09056)
[4] = test system: GST-C-hIFNα
[5] = target: H-GST-DEVD/S-mLIF (UniProt P09056)
[6] = target: H-GST-DEVD/mLIF (UniProt P09056)

Chain of TRX-EK-hIFNa [thioredoxin: P0AA25] (P0AA25 whole entry, looked up): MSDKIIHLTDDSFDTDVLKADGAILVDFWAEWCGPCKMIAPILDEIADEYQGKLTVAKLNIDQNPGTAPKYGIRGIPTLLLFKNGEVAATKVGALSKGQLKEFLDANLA

Substance: Enterokinase
- processing of the fusion protein (gel, FIG. 3b) [1]: 16 h incubation with Enterokinase resulted in only a minor amount of processing of the fusion protein
- cleavage of the fusion protein (gel, FIG. 3a) [2]: Cleavage with enterokinase required a long incubation time in order to process the molecule. In the end, the molecule was processed

Substance: Thrombin
- time needed for processing [3]: up to 16 h were needed to process the H-GST-T-mLIF fusion protein with Thrombin

Substance: reverse Caspase-7
- cleavage of the fusion protein (gel, FIG. 7) [4]: Both mLIF and hIFN alpha were cut efficiently using Either Caspase-3 or reverse Caspase-7, with either the recognition site DEVD/ or DEVD/S
- cleavage of the fusion protein (gel, FIG. 7) [5]: Both mLIF and hIFN alpha were cut efficiently using Either Caspase-3 or reverse Caspase-7, with either the recognition site DEVD/ or DEVD/S
- cleavage of the fusion protein (gel, FIG. 7) [6]: Both mLIF and hIFN alpha were cut efficiently using Either Caspase-3 or reverse Caspase-7, with either the recognition site DEVD/ or DEVD/S
